Assay results published in patent US20210238253A1 (GUANGDONG ZHAOTAI INVIVO BIOMEDICINE, published 2021).

Assays:
[1] = molecular target: T1, hCD19-his (human CD19 recombinant protein, Pro20-Lys291, His tag at C-terminus) (human, UniProt P15391 20-291); test: ELISA, coated hCD19-His
T1 construct: range 20-291; also called human CD19-His
T1 sequence (looked up): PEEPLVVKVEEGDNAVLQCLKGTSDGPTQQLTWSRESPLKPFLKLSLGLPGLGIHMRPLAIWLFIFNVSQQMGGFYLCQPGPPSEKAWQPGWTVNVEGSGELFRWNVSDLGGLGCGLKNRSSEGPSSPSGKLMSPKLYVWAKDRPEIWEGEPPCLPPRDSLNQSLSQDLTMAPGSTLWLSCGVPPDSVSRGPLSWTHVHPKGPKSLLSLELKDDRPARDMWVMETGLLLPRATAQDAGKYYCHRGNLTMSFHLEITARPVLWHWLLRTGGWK
Protocol: The antibodies were screened by ELISA according to Example 2. Briefly, […] of hCD19-His (ACRO) were spread and incubated. The purified antibodies were serially diluted to bind the incubated antigen. The binding signal of each antibody could be detected with HRP-labeled goat anti-rat Fc antibody.
Graphpad Prism software was used to calculate the fitting data.

[2] = molecular target: T2, hVISTA-his (human, UniProt Q9H7M9 33-194); test: ELISA, coated antigen 0.5 µg/ml
T2 construct: Coated antigen of the specificity ELISA
T2 sequence (looked up): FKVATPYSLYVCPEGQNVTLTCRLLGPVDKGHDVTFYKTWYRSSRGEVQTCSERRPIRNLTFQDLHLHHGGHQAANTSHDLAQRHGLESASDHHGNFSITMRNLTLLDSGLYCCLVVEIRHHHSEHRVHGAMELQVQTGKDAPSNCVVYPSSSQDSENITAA
Protocol: (§1) According to the method described in Example 4, 0.5 μg/ml of hCD19-His, hVISTA-his, hPD-L1, hCD40, h41BB and hLAG3 were spread and incubated respectively, and 2μg/ml of purified antibodies were added to bind the incubated antigen. The binding signal of each antibody could be detected with HRP-labeled goat anti-rat Fc antibody.

[3] = molecular target: T3, hPD-L1 (human, UniProt Q9NZQ7 19-238, limits assumed); test: ELISA, coated antigen 0.5 µg/ml
T3 construct: Coated antigen of the specificity ELISA
Protocol: as §1

[4] = molecular target: T4, hCD40 (human, UniProt P25942 21-193); test: ELISA, coated antigen 0.5 µg/ml
T4 construct: Coated antigen of the specificity ELISA
Protocol: as §1

[5] = molecular target: T5, h41BB (human, UniProt Q07011 24-186); test: ELISA, coated antigen 0.5 µg/ml
T5 construct: Coated antigen of the specificity ELISA
Protocol: as §1

[6] = molecular target: T6, hLAG3 (human, UniProt P18627 23-450, limits assumed); test: ELISA, coated antigen 0.5 µg/ml
T6 construct: Coated antigen of the specificity ELISA
T6 sequence (looked up): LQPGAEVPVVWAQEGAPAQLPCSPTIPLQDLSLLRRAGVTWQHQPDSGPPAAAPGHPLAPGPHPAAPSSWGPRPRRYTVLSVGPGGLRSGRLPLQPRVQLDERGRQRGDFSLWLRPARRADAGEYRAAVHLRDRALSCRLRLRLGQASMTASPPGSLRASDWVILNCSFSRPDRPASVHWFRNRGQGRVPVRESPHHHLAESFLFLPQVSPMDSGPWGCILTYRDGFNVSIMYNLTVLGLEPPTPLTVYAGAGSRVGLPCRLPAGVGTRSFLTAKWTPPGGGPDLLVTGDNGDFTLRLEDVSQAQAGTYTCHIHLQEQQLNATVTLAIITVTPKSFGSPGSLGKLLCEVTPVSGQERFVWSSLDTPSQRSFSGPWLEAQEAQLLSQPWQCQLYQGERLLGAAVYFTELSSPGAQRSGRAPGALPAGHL
Protocol: as §1

[7] = molecular target: T7, CD19 expressed by Nalm6 cells (UniProt P15391 20-556, limits assumed); test: flow cytometry on Nalm6 cells
T7 construct: whole, on cells; Endogenous CD19 on tumor cell lines; also called Nalm6/GL; CD19 antigen on RAJI-GL and NALM6-GL tumor cells
T7 sequence (looked up): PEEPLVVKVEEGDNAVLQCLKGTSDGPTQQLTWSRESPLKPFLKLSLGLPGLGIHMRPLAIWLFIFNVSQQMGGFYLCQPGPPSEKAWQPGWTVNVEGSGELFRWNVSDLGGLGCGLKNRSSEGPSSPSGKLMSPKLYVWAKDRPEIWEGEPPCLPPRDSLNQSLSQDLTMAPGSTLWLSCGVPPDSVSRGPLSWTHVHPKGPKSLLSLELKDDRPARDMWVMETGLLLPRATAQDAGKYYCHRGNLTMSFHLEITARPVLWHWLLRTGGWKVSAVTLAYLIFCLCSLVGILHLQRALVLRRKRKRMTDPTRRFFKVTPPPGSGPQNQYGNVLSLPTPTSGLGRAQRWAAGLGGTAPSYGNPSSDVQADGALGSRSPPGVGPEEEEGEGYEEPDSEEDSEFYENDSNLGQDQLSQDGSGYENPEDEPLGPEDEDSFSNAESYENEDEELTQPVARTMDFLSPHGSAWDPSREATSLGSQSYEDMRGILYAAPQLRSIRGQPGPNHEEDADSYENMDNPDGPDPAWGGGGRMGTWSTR
Protocol: The CD19-expressing tumor cells Nalm6 in logarithmic growth phase were collected and resuspended in PBS at a cell density of 10⁵/well, 100 μl/well. The diluted CD19 antibodies were added into the well and incubated at 4° C. for 1 hour. The cells were washed three times with flow cytometry wash buffer. Anti-rat IgG-Alexa Fluor 647 (Abcam, Cat #ab150163) was added and incubated at 4° C. for 1 hour. The cells were washed three times with flow cytometry wash buffer. The samples were analyzed by flow cytometry. The results are shown in FIG. 3 and Table 4, as follows: […]

[8] = molecular target: T8, CD19 expressed by Nalm6 cells (UniProt P15391 20-556); test: flow cytometry
T8 chain: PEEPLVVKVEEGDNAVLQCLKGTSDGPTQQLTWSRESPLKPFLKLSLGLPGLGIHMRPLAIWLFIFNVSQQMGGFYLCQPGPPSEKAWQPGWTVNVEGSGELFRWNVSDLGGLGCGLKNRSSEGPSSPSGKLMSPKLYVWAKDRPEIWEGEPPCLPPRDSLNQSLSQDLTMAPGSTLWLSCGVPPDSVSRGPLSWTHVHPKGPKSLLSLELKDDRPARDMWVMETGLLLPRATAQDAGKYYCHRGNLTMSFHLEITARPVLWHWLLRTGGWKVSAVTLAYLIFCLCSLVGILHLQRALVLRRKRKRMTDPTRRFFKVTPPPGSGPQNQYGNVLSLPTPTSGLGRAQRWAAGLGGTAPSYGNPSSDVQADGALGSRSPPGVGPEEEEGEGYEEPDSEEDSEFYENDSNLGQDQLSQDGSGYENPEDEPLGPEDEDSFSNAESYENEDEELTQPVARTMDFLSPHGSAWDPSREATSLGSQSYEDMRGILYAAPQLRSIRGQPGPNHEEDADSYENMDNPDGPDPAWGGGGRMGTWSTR

T4 sequence (P25942 21-193 limits assumed): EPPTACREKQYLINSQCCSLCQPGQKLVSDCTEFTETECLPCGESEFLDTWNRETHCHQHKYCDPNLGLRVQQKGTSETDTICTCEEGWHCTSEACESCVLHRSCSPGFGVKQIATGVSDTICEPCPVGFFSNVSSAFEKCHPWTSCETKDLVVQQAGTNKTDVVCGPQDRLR
T3 sequence (Q9NZQ7 19-238 limits assumed): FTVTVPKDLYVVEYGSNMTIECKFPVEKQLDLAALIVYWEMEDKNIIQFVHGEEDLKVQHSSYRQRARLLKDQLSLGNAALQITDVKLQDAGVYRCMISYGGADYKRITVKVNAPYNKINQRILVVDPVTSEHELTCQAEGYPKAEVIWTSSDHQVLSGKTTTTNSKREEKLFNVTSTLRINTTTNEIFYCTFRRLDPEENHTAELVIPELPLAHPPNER

B1: 27F11 (hybridoma antibody) (antibody, V domains shown)
VH: QVQLVESGGGVVQPGRSLRLSCAASGFTFSRHGMHWVRQAPGKGLEWVAVIYYDGSNKYYVDSVKGRFTISRDNSKNTLDLQMNSLRAEDTAVYYCARRSITWNGAFDIWGQGTMVTVSS
VL: DIQMTQSPSTLSASVGDRVTISCRASQSISSWLAWYQQKPGKAPKLLIYKASSLESGVPSRFSGSGSGTEFTLTISSLQPDDFATYYCQQYNSAYTFGQGTKLEIK
notes: hybridoma mAb from H2L2 mouse (human variable, rat constant regions)
EC50 [1]: 0.0672 µg/mL | binding result [2]: no binding (tested: 2 µg/ml) | binding result [3]: no binding (tested: 2 µg/ml) | binding result [4]: no binding (tested: 2 µg/ml) | binding result [5]: no binding (tested: 2 µg/ml) | binding result [6]: no binding (tested: 2 µg/ml) | Maximum mean fluorescence intensity (30 µg/ml) [7]: 30000 | EC50 [8]: 57.3 µg/mL

B2: 52F9 (hybridoma antibody) (antibody, V domains shown)
VH: QVQLVESGGGVVQAGRSLRLSCAASGFTFSNYGIHWVRQAPGKGLEWVGVIWHDGSIKNYADFVKGRFTISRDNSEDTLYLQMNSLRAEDTAVYYCAREQGNYYGWGSYKAFDIWGQGTMVTVSS
VL: DIQLTQSPSFLSVFVGDRVTITCRASQGISNYLAWYQQKPGKAPELLLYATSTLQSGVPSRLSGSGSGTEFTLTLSSLQPEDFATYYCQQVYSFPYTFGQGTKLEIK
notes: as for B1
EC50 [1]: 0.0592 µg/mL | binding result [2]: no binding (tested: 2 µg/ml) | binding result [3]: no binding (tested: 2 µg/ml) | binding result [4]: no binding (tested: 2 µg/ml) | binding result [5]: no binding (tested: 2 µg/ml) | binding result [6]: no binding (tested: 2 µg/ml) | Maximum mean fluorescence intensity (30 µg/ml) [7]: 5160 | EC50 [8]: 1.87 µg/mL

B3: 17B6 (hybridoma antibody) (antibody, V domains shown)
VH: QVQLVESGGGVVQPGRSLRLSCEASGFTFSRHGMHWVRQAPGKGLEWVAVIFYDGSQNYYADSVRGRFTISRDNSKNTLSLQMDSLRAEDTAVYYCARRSITWNGGFDIWGQGTMVTVSP
VL: DIQMTQSPSTLSASVGDRVTITCRASQSISSWLAWYQQKPGKAPKLLIYKASSLESGVPSRFSGSGSGTEFTLAISSLQPDDFATYYCQQYNRFYTFGQGTKLEIK
notes: as for B1
EC50 [1]: 0.176 µg/mL | binding result [2]: no binding (tested: 2 µg/ml) | binding result [3]: no binding (tested: 2 µg/ml) | binding result [4]: no binding (tested: 2 µg/ml) | binding result [5]: no binding (tested: 2 µg/ml) | binding result [6]: no binding (tested: 2 µg/ml) | Maximum mean fluorescence intensity (30 µg/ml) [7]: 25500 | EC50 [8]: 36.9 µg/mL
